In a protein production outcome set (Wang et al. 2014) one finds protein production data, which are given here for 22 sequences.

The series in a line: label from the status in PepcDB records.

In the case of “MILTLLQNGDYETARTQALTELKNNSDNAELHYYAAWAHDALGKEDAAIPFYEKALQLGLPADSRKEAYIGLGSTYRITGQPEKSIRLFETALQEFPDNNALRTFSVMAKYNQGLEKEALEEALMLLTQTTSDEDILSYKKAIQFYAQDLDATFHLEHHHHHH”, the protein production entry is “not failed”. Consider “MILVATKPKDSRGSSSDEMMMNDLDEIIFGENSLGHSSSASGNDQKKQKSSKNNELIHL”, for which the protein production entry is given as “failed”. Turning to “MIMKKYWKLMLMAVGMSAAFTLASCNDDKDVVIDQIYYISTDPSATTYPTTFSVSLVDNSVAGRPFFYVVGKSTMRVDRNTTLRVEEDSKLVEKYNETYGKKYLPFPEGTYSFSTNEVTINQGDNFSSDTIFISFSNWDKLSKIDKYLLPVSLKAVDDKGAVSMDRNLIYFIADFSTTNTGYNKPAAWKPLDRTDWDVSFSYAYGYDEAQFGGRLAVDGDVSTTWFTWGVVSAGECWWATTLPAPTHLTGFSLTRQTTFGSSYNVREAKVKVKKEGDTEWTEAGLFRFGSFKGNDPQYAVFIPAVENVKEFRIDIVSPADFTGFAELDLYQ”, the protein production result was “failed”. As for “MIMLNKQGITISLCMIVRDEEETIARCLETVEKIVDEIIVVDTGSVDRTKEIVEKYTSNIYDFQWIDDFAAARNFSFSKATQEYILWLDADDVLLEDAQEALKLLKRELDPKIDAVSMPYHLAMDSNGKPLYCTKRNRLVKREKQFQWFGKVHEYLAISGEVFSSNVAITHKKEKKVTNRNLKIFQNTVAAGEELSPRDLFYYANESTDNQKYDDAVLLYETFLNQDEGWYEEKIYACGKLGDCYAKLGMWEKAIESCVKSFRYDVPRGENCTRIGYIYMEQEKYNEAIFWFKLATEVPMATESPFHSPASYTWLPYLQMCICYSRLGEQDKAYYYNELAASYVPNNAAIEYNRKYFRGVFDKPYKV”, the entry is “failed”; as for “MIMNTKERSLLGSWIIWSVAYYMYYPFISIYLSRFVEESKLSLFFVVFQAVSLPLPLIGARLSKRNRILPIIIGMLVGGIGMIMLPFSRNILEATIFMSLNYFISLSLPSYYSLMSEVGEGTITRIWSLSILPSIIMPSLGGLLAQYFGLRLLFMIGGIVLATSFLPMVNSSYNSSSQSLLNFNITIRSFLPAILILPIAMEFPYIYLVVYNYFHLTKEYVGIIATSAEILGMLLTYLASKLIFRKKYLLSLSLFLFSLTSLYFLSPTIAIFFGCWEVIVPLTLEYFSSRKTVYDFALITTMQGLGWVLGYLIDYFIPNISLLLLSSSLIAFLLALMIVFTKD”, “failed”; as for “MIMVSGCQQQKEETPFYYGTWDEGRAPGPTDGVKSATVTFTEDEVVETEVMEGRGEVQLPFMAYKVISQSTDGSIEIQYLGPYYPLKSTLKRGENGTLIWEQNGQRKTMTRIESKTGREEKDEKSKSLEHHHHHH”, “not failed”.

Take “MINAISPFQVQNTQNTQNATNQVNNSQKTDSSNQTSFSELLKNSISSLNESQVASDNMTNALAAGKDVNLDEVMIAAQKASISLTAATEFRNKAVEAYQEIMRMQM”: the protein production entry is given as “not failed”.

In the case of “MINEIGHYVLVLALGVGLIVSTLPVIGARRNDRALMDVASLGSVLMFLLVGFSFAALTHAYAVSDFSVRNVWENSHSLMPMLYKLTGVWGNHEGSMLLWLLILVFFSALVAAFGGNLPETLKANVLAVQAWISVAFLLFILLTSNPFLRLERVPAEGQDLNPILQDFGLAIHPPLLYLGYVGFSVCFSFAVAALLEGRIDAAWARWVRPWTLAAWTFLTAGISMGSYWAYYELGWGGWWFWDPVENASFMPWLAGTALLHSALVMEKREALKIWTVLLAIMTFSLSLLGTFLVRSGVLTSVHAFATDPSRGIFILGILTIFIGGAFALFAWRAPSLKAGGLFAPISREGALVLNNLILTVSTATVLIGTLYPLILETLTGEKISVGAPFFNLTFGLLMIPVLIVTPFGPMLAWKRGDLLGAFQRLYVAAAIAALAGLTLWYIENGGPVLAALGIAAGFWLIFGALTDLWYRANFGKLAFGIAFRRLKGLPRSAFGTALAHMGLGITVLGIVIVTTYETETVLEMKQGTVAEAGGYSLTFDGIRHAVGPNFTEDRGHFTVRKAGVEVADVWSSKRLYTARRMPTTEAGILTFGLSQLYVSLGDPMADGGMVVRIWWKPFILCIWGGTLFMMAGGFISLSDRRLRVGAPTRKAKPVRAAMPEAAE”, the protein production result is “failed”. Turning to “MINIVIPMAGAGSRFAQAGYKKPKPFIDVLGRPMICHVLDNLNMPDARFILLTRKEHFENEQETVNWIKSKYNVEFVLIDNLTEGAACTVLHAHKLIDNNTPLLIANSDQIVDMNIAEFINDSENRNLDGSVLCFKDHDTKWSYAKIDGEGLITEIREKVVISEFATVGIYYFAKGGFFVKNAIDMIIRNERVKNEFYVAPVYNFGIQEGLKFGIFNININQMHGIGTPTDLNVYIDLVQRNKLEHHHHHH”, the protein production entry was “not failed”. As for “MINLAVLGLYLLIGFILKRTGKCPENSAQVLNLYVIYAALPGVIFSKVPALEFSTDLLIPVVIPWVLLAFSAVFIWLLGRAFKWPREVVGALLICVPLGNTSFFGFPMIEAFYGSDAIVYGLLYDQFGSFFGLAIYSTIVIALYREQDNKPTVASVTRQIVTFPPFIALIIALLTKSLVYPEVFQRLIDSLAVTLVPVIMIAVGFQLKFRLPKGSKTPLTIGLLTKLVLMPLITVGLLYGFGFDSTLVQVTIFESAMPPMITAGAVAIMAGLAPRLSAAMVGYGILFAFVSLPIVYQLLQLLSAH”, the entry is “failed”. As for “MINQRMIHMKNTKLLLAIATSAALLTGCQNTHGIDTNMAISSGLNAYKAATLSDADAKAIANQGCAEMDSGNQVASKSSKYGKRLAKIAKALGNNINGTPVNYKVYMTSDVNAWAMANGCVRVYSGLMDMMNDNEIEGVLGHELGHVALGHSLAEMKASYAIVAARDAISATSGVASQLSRSQLGDIAEGAINAKYSRDKESEADDFSFDLLKKRGISTQGLVGSFETLASLDGGRTQSMFDSHPPSTERAQHIRDRIASGKLEHHHHHH”, the entry is “failed”; as for “MINRDFIISFIVVTCIIYLIYVCYGKYLEKKQIYLKTLTIFLIIEVLRRIFIYGKVNNRLISGLSFIQLIFLGISVAMYGLMYFKNNLS”, “failed”. Turning to “MINRVPTNIITGFLGVGKTTAILHLLATKPAHEKWAVLVNEFGEIGIDGAIMSEQGAMIKEVPGGCLCCTAGVPMSVGINALLRQKPDRLIIEPTGLGHPKQVVATLISEQYQPYVDLKATIALMDPRHLSMDKYRSNQNFNDQLASADIVLGNKVDQCSSSDIDAFNDWVTDQTPAKTFSQLIKQGQFPIELLDMPRLVGHASTHIDSHHHHHAADEPQFQLAPQQPFLRKENRGQGYFSCGWLFGAEYQFNFDLLFQLLNDLTAERVKGVLNTDRGCYAFNVANGVVSVTEMSLDGFESRLEVIDSQLMPWSELESILLKIAGIPQALEHHHHHH”, the protein production result was “failed”. As for “MINSGTLITKIEELQSTLAKMDIALGTVDEAIVWTDGTGQIQWCNTAFDHLMGKLHILILGKNLVELLPLHRNSQPLEVSHHPFTIIVATQQKFTDHYEFNQNGKWLHLEIMTSPLMNAQGAVLVIRDISDRHLQEQTLQQLNENLEKRVLERTQAVSLIN”, the entry is “failed”; as for “MIPDELKHYLTDDWYAVVREHKLLELPAKVTVQQISEQYLAHKKSVKSTSASKEVAINDVLDGIVEYFNVMLGSQLLYKFERTQYADVMQKHPDTPLSELYGSFHLLRLFVRLGSMLSYSALDQQSMQNLLTHVQDFLKFLVKNSSIFFSMSNFINVDPEYVRNAQ”, “failed”; as for “MIPEIAGLPALEWTSSAGHASYDEAEATLTLAAASGVDWTNDSLGGEPQHGATALGFRAPAAFSLSARVLVASPRTTFDAGVLTLWADSDHWAKLCFEYSPQGEAMVVSVVTNGYSDDSNGPVVTAPWVYLRVSRVGPAWAFHSSTDGRDWSLVRLFRLDTEKPVHVGFMSQAPMGDGCEARFDAIELKEEPPAELRDGS”, “failed”. In the case of “MIPFKDITLADRDTITAFTMKSDRRNCDLSFSNLCSWRFLYDTQFAVIDDFLVFKFWAGEQLAYMMPVGNGDLKAVLRKLIEDADKEKHNFCMLGVCSNMRADLEAILPERFIFTEDRAYADYIYLRSDLATLKGKKFQAKRNHINRFRNTYPDYEYTPITPDRIQECLDLEAEWCKVNNCDQQEGTGNERRALIYALHNFEALGLTGGILHVNGKIVAFTFGMPINHETFGVHVEKADTSIDGAYAMINYEFANRIPEQYIYINREEDLGIEGLRKAKLSYQPVTILEKYMACLKDHPMDMVRW”, the protein production result was “not failed”. The same measure for “MIPLSESFESGIPAIWKTIDADGDGYNWMHLTNFTGQSGLCVSSASYIGGVGALTPDNYLITPELKLPTDALVEIIYWVCTQDLTAPSEHYAVYSSSTGNNAADFVNLLYEETLTAKRIQSPELIRGNRTQGVWYQRKVVLPNDTKYVAFRHFNSTDNFWLNLDEVSILYTPLPRRA”: “not failed”. Take “MIPMFTVTLEDSGTLWKSLHSSSESEMTTLPPLPMTRPKLTALARQKLPCSSRKIPRSQLIKEKDDIDHYLEVNFKGLSKEEVAAYRNSYKKNICVDMLRDGYHKSFTELFALMERWDALREAARVRSLFWLQKPLEEQPDKLDYLYHYLTRAEDAERKESFEDVHNNLYALACYFNNSEDKWVRNHFYERCFKIAQLIKIDCGKKEAEAHMHMGLLYEEDGQLLEAAEHYEAFHQLTQGRIWKDETGRSLNLLACESLLRTYRFLSDKMLENKEYKQAIKILIKASEIAKEGSDKKMEAEASYYLGLAHLAAEEYETALTVLDTYCKISTDLDDDLSLGRGYEAIAKVLQSQGEMTEAIKYLKKFVKIARNNFQSLDLVRASTMLGDIYNEKGYYNKASECFQQAFDTTVELMSMPLMDETKVHYGIAKAHQMMLTVNNYIESADLTSLNYLLSWKESRGNIEPDPVTEEFRGSTVEAVSQNSERLEELSRFPGDQKNET”: the protein production result was “failed”. On to “MIPQIPLPMLSEGKDCKIREVLAGKALKRRLTEMGFTPSSSIRLIGCERGNLLVNVNGARYALGKGMAMKIMVEPD”, for which the protein production result was “failed”. Turning to “MIPRCLINQILRLAQASPEREVCGLVGAAAGRRMRCYPVPNVAERPECRFLLDPKGQIDALRAMRERGEELFAIFHSHPTAAAIPSPADLEFAAYPEALHLIVSLGTKGVLEMRGFRIGSSSRPREVELLLAPELEHHHHHH”, the protein production entry is “failed”. With “MIPTATYRLQFRNGMTFDRAAALVPYLKNLGISHLYASPIFTATKASTHGYDVTDANEIEPSIGGREGFERLVAELKAQGLGLIIDIVPNHMASSLENAWWRDVLEYGKESRYARHFDIDWSRRLTLPFLGDTFDAVLENGEIAIKPDPATGKPAFAYYDNYYPLAPATWQGREAEILALTDKAAIADLHERQPWKLMSWRDAARSLSYRRFFEVTGLVGMRVEDKTVFDDTHRLILELVRTGAVDGLRIDHIDGLADPKAYLARLRQEVGPACYITVEKILAKGEQLPDDWPVSGTTGYEFIASLAEVLVDDEQIDNLRQAYETVKGAPVDMRAELRAAKLLMVDRNFEGEFTRLLALALSIASELQIAQEESVVRQALRELLIAFPVYRTYGTAEGLPPTDICLLHRIVERVKTLETPPQPEALTFLSRLLTGDVPASSQEEATQFRVRFQQLTGPLMAKSVEDTLFFRQNMGLALNEVGAEPVTHHFSIERFHHEMKTRQARQPDALSGTSTHDTKRGEDARARLYTLTEAPEQWSECLARWRQMNQTHVKFLNDGTAPKSADTWMLYQALTGVWPPVLQPQDETGLNALKTRFEAFVEKALREAKLRTDWVDSNEAYETAMLDYARYLLAPDNQTFLQDFYRSLQPFIRAGLVNSLTQTVIKLTAPGVPDIYQGSEALNFSLVDPDNRREPDFATLAQQLDQLTPGVFSREESWLNGQVNQYVTAALLRLRQQNHELFRFGDYIPLRAVGQRADKVIAYARVNHDDALIVVAPRLVFAECDGLLSQSHSGFWSGTDIIIPGQLNQHRYRNVLTQERLMPGERLSLASHQGGVLVLMSD”, the protein production result was “failed”.
